In one data set the target is T1, mono-ubiquitin (UniProt P0CG48 1-76).
T1 construct: ubiquitin (mono-ubiquitin); The methods describe neither a plasmid nor a supplier for the mono-ubiquitin
The data set can be described thus: SPR; Biacore S200; GST-HOIP NZF1 held on anti-GST antibodies amine-coupled to a CM5 chip, GST as control; analytes in 10 mM HEPES pH 7.4, 150 mM NaCl, 0.005% P20; mono-ubiquitin 288.0-1.1 µM, mNEMO 100.0-0.4 µM; equilibrium KD; duplicate. The note with it: both partners purified.

For data set [1], the target named is T2, mouse NEMO (mNEMO, a.a. 250–339, corresponding to hNEMO 257–346) (mouse, UniProt O88522 250-339).
T2 construct: NEMO (IKKγ), mouse, residues 250-339; Cloned into pET-28a downstream of the 6xHis tag; source: E. coli BL21 (DE3), purified (Talon beads, on-column thrombin cleavage, size-exclusion chromatography); not shown: His6, N-terminal, cleaved
T2 sequence (O88522 250-339): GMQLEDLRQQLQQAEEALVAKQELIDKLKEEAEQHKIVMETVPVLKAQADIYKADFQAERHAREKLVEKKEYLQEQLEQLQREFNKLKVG
The data set is described as above. The conditions noted are these: both partners purified.

Data set [2] deals with the molecule itself. The data set can be described thus: crystal structure; hHOIP NZF1, hNEMO and linear di-ubiquitin purified separately, mixed in an equimolar ratio; sitting drops, 0.1 M Tris-HCl pH 8.5, 22% v/v PEG Smear Broad; 4.2 Å; heteropentameric complex.
Data set [3] has as its target T3, human HOIP NZF1 (hHOIP NZF1, aa. 350–379) (human, UniProt Q96EP0 350-379).
T3 construct: HOIP, human, NZF1 domain, residues 350-379; Cloned into pGEX-6p-1; also called Npl4 zinc finger 1 domain of HOIP; source: E. coli BL21 (DE3), purified (Glutathione Sepharose 4B, on-column PreScission cleavage, Superdex 75); not shown: GST, N-terminal, cleaved
T3 chain (looked up): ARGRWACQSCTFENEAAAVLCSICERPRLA
Described as above. The note with it: both partners purified.

A further data set deals with T4, linear diubiquitin (UniProt P0CG48 1-76; P0CG48 1-76).
T4 construct: ubiquitin, the N-terminal (distal) unit of the head-to-tail chain; its C-terminal Gly is joined to Met1 of the next ubiquitin; ubiquitin, the C-terminal (proximal) unit of the head-to-tail chain, residues 1-76 (Leu73-Gly76 not visible in the map); Two ubiquitins on one chain, expressed from pGEX-4T-1; also called linear diubiquitin chain; source: E. coli, purified (Glutathione Sepharose 4B, …)
Described as above. The note with it: both partners purified.

B1: GST-HOIP NZF1(a.a. 350–379) (domain or fragment, human, UniProt Q96EP0 350-379, looked up)
chain: ARGRWACQSCTFENEAAAVLCSICERPRLA
notes: HOIP, human, NZF1 domain, residues 350-379; Held on the SPR chip by anti-GST antibodies; how the uncleaved fusion was purified is not described; source: E. coli BL21 (DE3), expressed as GST-fusion protein; not shown: GST, N-terminal, kept
As a reminder, the Kd is the constant that tells how readily two partners part at equilibrium. High values mean a looser complex, low ones a tighter complex. On to B1, for which the dissociation constant (Kd) came out at 135 µM with mono-ubiquitin and 86.7 µM in data set [1].

B2: human NEMO (hNEMO, aa. 257–346) (domain or fragment, UniProt Q9Y6K9 257-346, looked up)
chain: GMQLEDLKQQLQQAEEALVAKQEVIDKLKEEAEQHKIVMETVPVLKAQADIYKADFQAERQAREKLAEKKELLQEQLEQLQREYSKLKAS
notes: NEMO (IKKγ), human, residues 257-346 (CoZi region with the UBAN domain); Coiled-coil homodimer in the crystal; Cloned into pGEX-6p-1; also called NEMO CoZi; NEMO coiled-coil 2/zinc finger (CoZi); source: E. coli BL21 (DE3), purified (Glutathione Sepharose 4B, on-column PreScission cleavage, Superdex 75); not shown: GST, N-terminal, cleaved
Usually stoichiometry N stands for the number of molecules, sites or subunits per partner or assembly. B2: the “stoichiometry N” value in data set [2] was 2; in data set [3] it was 2 NEMO chains per NZF1. Besides, the binding result with linear diubiquitin was “binds”.

The record behind these values is PMC9294000, “Structural basis for the simultaneous recognition of NEMO and acceptor ubiquitin by the HOIP NZF1 domain” (Scientific Reports, 2022).
